Usually stoichiometry N stands for the number of molecules, sites or subunits per partner or assembly.

These results are taken from article PMC11132685.

Experiment in all cases: SEC-MALS; purified NACHOs; oligomeric state; conditions not given
For orientation: SEC sorts molecules by how far they enter the pores of the column.

Assay [1] concerns the target tetrabrachion-stabilised recombinant N2 NA (NACHO) of A/ALASKA/251/2015 (not stated | influenza A virus (H3N2) A/ALASKA/251/2015).
In assay [2] the target is tetrabrachion-stabilised recombinant N2 NA (NACHO) of A/DAKAR/14/2014 (not stated | influenza A virus (H3N2) A/DAKAR/14/2014).
Assay [3] has as its target tetrabrachion-stabilised recombinant N2 NA (NACHO) of A/ESTONIA/91621/2015 (not stated | influenza A virus (H3N2) A/ESTONIA/91621/2015).
The target of assay [4] is tetrabrachion-stabilised recombinant N2 NA (NACHO) of A/GAMBIA/G0071436/2012 (not stated | influenza A virus (H3N2) A/GAMBIA/G0071436/2012).
Assay [5] has as its target tetrabrachion-stabilised recombinant N2 NA (NACHO) of A/HANOI/ELI15597/2015 (not stated | influenza A virus (H3N2) A/HANOI/ELI15597/2015).
Assay [6] has as its target tetrabrachion-stabilised recombinant N2 NA (NACHO) of A/HEILONGJIANGXIANGYANG/1134/2011 (not stated | influenza A virus (H3N2) A/HEILONGJIANGXIANGYANG/1134/2011).
In assay [7] the target is tetrabrachion-stabilised recombinant N2 NA (NACHO) of A/HELSINKI/823/2013 (not stated | influenza A virus (H3N2) A/HELSINKI/823/2013).
For assay [8], the target named is tetrabrachion-stabilised recombinant N2 NA (NACHO) of A/HELSINKI/941/2013 (not stated | influenza A virus (H3N2) A/HELSINKI/941/2013).
In assay [9] the target is tetrabrachion-stabilised recombinant N2 NA (NACHO) of A/HOKKAIDO/10H079/2011 (not stated | influenza A virus (H3N2) A/HOKKAIDO/10H079/2011).
In assay [10] the target is tetrabrachion-stabilised recombinant N2 NA (NACHO) of A/HONGKONG/3089/2017 (not stated | influenza A virus (H3N2) A/HONGKONG/3089/2017).
The target of assay [11] is tetrabrachion-stabilised recombinant N2 NA (NACHO) of A/INDIANA/08/2011 (not stated | influenza A virus (H3N2) A/INDIANA/08/2011).
Assay [12] concerns the target tetrabrachion-stabilised recombinant N2 NA (NACHO) of A/INDIANA/18/2017 (not stated | influenza A virus (H3N2) A/INDIANA/18/2017).
Assay [13] concerns the target tetrabrachion-stabilised recombinant N2 NA (NACHO) of A/MINNESOTA/11/2010 (not stated | influenza A virus (H3N2) A/MINNESOTA/11/2010).
Assay [14] deals with tetrabrachion-stabilised recombinant N2 NA (NACHO) of A/NAGANO/2153/2017 (not stated | influenza A virus (H3N2) A/NAGANO/2153/2017).
The target in assay [15] is tetrabrachion-stabilised recombinant N2 NA (NACHO) of A/NEWCALEDONIA/23/2016 (not stated | influenza A virus (H3N2) A/NEWCALEDONIA/23/2016).
Assay [16] has as its target tetrabrachion-stabilised recombinant N2 NA (NACHO) of A/OHIO/13/2017 (not stated | influenza A virus (H3N2) A/OHIO/13/2017).
Assay [17] has as its target tetrabrachion-stabilised recombinant N2 NA (NACHO) of A/OHIO/62/2012 (not stated | influenza A virus (H3N2) A/OHIO/62/2012).
The target of assay [18] is tetrabrachion-stabilised recombinant N2 NA (NACHO) of A/ONTARIO/RV3236/2016 (not stated | influenza A virus (H3N2) A/ONTARIO/RV3236/2016).
In assay [19] the target is tetrabrachion-stabilised recombinant N2 NA (NACHO) of A/PERTH/16/2009 (not stated | influenza A virus (H3N2) A/PERTH/16/2009).
Assay [20] deals with tetrabrachion-stabilised recombinant N2 NA (NACHO) of A/POLAND/19B/2017 (not stated | influenza A virus (H3N2) A/POLAND/19B/2017).
The target in assay [21] is tetrabrachion-stabilised recombinant N2 NA (NACHO) of A/PORTOALEGRE/LACENRS2376/2014 (not stated | influenza A virus (H3N2) A/PORTOALEGRE/LACENRS2376/2014).
The target of assay [22] is tetrabrachion-stabilised recombinant N2 NA (NACHO) of A/STOCKHOLM/15/2014 (not stated | influenza A virus (H3N2) A/STOCKHOLM/15/2014).
Assay [23] concerns the target tetrabrachion-stabilised recombinant N2 NA (NACHO) of A/STOCKHOLM/32/2014 (not stated | influenza A virus (H3N2) A/STOCKHOLM/32/2014).
The target of assay [24] is tetrabrachion-stabilised recombinant N2 NA (NACHO) of A/SWITZERLAND/9715293/2013 (not stated | influenza A virus (H3N2) A/SWITZERLAND/9715293/2013).
In assay [25] the target is tetrabrachion-stabilised recombinant N2 NA (NACHO) of A/TASMANIA/1018/2015 (not stated | influenza A virus (H3N2) A/TASMANIA/1018/2015).
Assay [26] has as its target tetrabrachion-stabilised recombinant N2 NA (NACHO) of A/TEHRAN/996/2012 (not stated | influenza A virus (H3N2) A/TEHRAN/996/2012).
For assay [27], the target named is tetrabrachion-stabilised recombinant N2 NA (NACHO) of A/UTAH/11/2011 (not stated | influenza A virus (H3N2) A/UTAH/11/2011).
Assay [28] concerns the target tetrabrachion-stabilised recombinant N2 NA (NACHO) of A/WISCONSIN/16/2015 (not stated | influenza A virus (H3N2) A/WISCONSIN/16/2015).
Assay [29] deals with tetrabrachion-stabilised recombinant N2 NA (NACHO) of A/XINJ…/1411/2012 (not stated | influenza A virus (H3N2) A/XINJ…/1411/2012).

Regarding “tetrabrachion-stabilised recombinant N2 NA (NACHO) of A/ALASKA/251/2015 (enzyme)”, the stoichiometry N in [1] was found to be 4.
On to “tetrabrachion-stabilised recombinant N2 NA (NACHO) of A/DAKAR/14/2014 (enzyme)”, for which the stoichiometry N in assay [2] worked out at 4.
Take “tetrabrachion-stabilised recombinant N2 NA (NACHO) of A/ESTONIA/91621/2015 (enzyme)”: the stoichiometry N in assay [3] is 4.
As to “tetrabrachion-stabilised recombinant N2 NA (NACHO) of A/GAMBIA/G0071436/2012 (enzyme)”, the stoichiometry N in assay [4] is 4.
For “tetrabrachion-stabilised recombinant N2 NA (NACHO) of A/HANOI/ELI15597/2015 (enzyme)”, the stoichiometry N in assay [5] was 4.
With “tetrabrachion-stabilised recombinant N2 NA (NACHO) of A/HEILONGJIANGXIANGYANG/1134/2011 (enzyme)”, the stoichiometry N in [6] turned out to be 4.
Consider “tetrabrachion-stabilised recombinant N2 NA (NACHO) of A/HELSINKI/823/2013 (enzyme)”, for which, in [7], the stoichiometry N came to 4.
Regarding “tetrabrachion-stabilised recombinant N2 NA (NACHO) of A/HELSINKI/941/2013 (enzyme)”, the stoichiometry N in assay [8] is 4.
For “tetrabrachion-stabilised recombinant N2 NA (NACHO) of A/HOKKAIDO/10H079/2011 (enzyme)”, in [9], the stoichiometry N was 4.
With “tetrabrachion-stabilised recombinant N2 NA (NACHO) of A/HONGKONG/3089/2017 (enzyme)”, in assay [10], the stoichiometry N was determined as 4.
“tetrabrachion-stabilised recombinant N2 NA (NACHO) of A/INDIANA/08/2011 (enzyme)”: in assay [11], the stoichiometry N came to 4.
Take “tetrabrachion-stabilised recombinant N2 NA (NACHO) of A/INDIANA/18/2017 (enzyme)”: the stoichiometry N in assay [12] stood at 4.
For “tetrabrachion-stabilised recombinant N2 NA (NACHO) of A/MINNESOTA/11/2010 (enzyme)”, in assay [13], the stoichiometry N was found to be 4.
As for “tetrabrachion-stabilised recombinant N2 NA (NACHO) of A/NAGANO/2153/2017 (enzyme)”, in assay [14], the stoichiometry N came to 4.
Turning to “tetrabrachion-stabilised recombinant N2 NA (NACHO) of A/NEWCALEDONIA/23/2016 (enzyme)”, in assay [15], the stoichiometry N was found to be 4.
Consider “tetrabrachion-stabilised recombinant N2 NA (NACHO) of A/OHIO/13/2017 (enzyme)”, for which the stoichiometry N in [16] turned out to be 4.
Take “tetrabrachion-stabilised recombinant N2 NA (NACHO) of A/OHIO/62/2012 (enzyme)”: the stoichiometry N in assay [17] was determined as 4.
Consider “tetrabrachion-stabilised recombinant N2 NA (NACHO) of A/ONTARIO/RV3236/2016 (enzyme)”, for which, in [18], the stoichiometry N is 4.
As to “tetrabrachion-stabilised recombinant N2 NA (NACHO) of A/PERTH/16/2009 (enzyme)”, the stoichiometry N in [19] was 4.
As to “tetrabrachion-stabilised recombinant N2 NA (NACHO) of A/POLAND/19B/2017 (enzyme)”, in [20], the stoichiometry N was 4.
Turning to “tetrabrachion-stabilised recombinant N2 NA (NACHO) of A/PORTOALEGRE/LACENRS2376/2014 (enzyme)”, the stoichiometry N in assay [21] is 4.
As for “tetrabrachion-stabilised recombinant N2 NA (NACHO) of A/STOCKHOLM/15/2014 (enzyme)”, in assay [22], the stoichiometry N turned out to be 4.
Take “tetrabrachion-stabilised recombinant N2 NA (NACHO) of A/STOCKHOLM/32/2014 (enzyme)”: in assay [23], the stoichiometry N was 4.
With “tetrabrachion-stabilised recombinant N2 NA (NACHO) of A/SWITZERLAND/9715293/2013 (enzyme)”, in [24], the stoichiometry N turned out to be 4.
As for “tetrabrachion-stabilised recombinant N2 NA (NACHO) of A/TASMANIA/1018/2015 (enzyme)”, the stoichiometry N in assay [25] is 4.
Regarding “tetrabrachion-stabilised recombinant N2 NA (NACHO) of A/TEHRAN/996/2012 (enzyme)”, the stoichiometry N in assay [26] amounted to 4.
Consider “tetrabrachion-stabilised recombinant N2 NA (NACHO) of A/UTAH/11/2011 (enzyme)”, for which, in assay [27], the stoichiometry N was found to be 4.
With “tetrabrachion-stabilised recombinant N2 NA (NACHO) of A/WISCONSIN/16/2015 (enzyme)”, the stoichiometry N in [28] was 4.
On to “tetrabrachion-stabilised recombinant N2 NA (NACHO) of A/XINJ…/1411/2012 (enzyme)”, for which, in assay [29], the stoichiometry N came out at 4.
